For experiment [1], the target named is cloned human µ opioid receptor (human), P35372. The experiment is described as follows: saturation binding, Scatchard analysis, COS-7 membranes.
Experiment [2] has as its target T1, rat µ opioid receptor (rat), P33535.
T1 chain: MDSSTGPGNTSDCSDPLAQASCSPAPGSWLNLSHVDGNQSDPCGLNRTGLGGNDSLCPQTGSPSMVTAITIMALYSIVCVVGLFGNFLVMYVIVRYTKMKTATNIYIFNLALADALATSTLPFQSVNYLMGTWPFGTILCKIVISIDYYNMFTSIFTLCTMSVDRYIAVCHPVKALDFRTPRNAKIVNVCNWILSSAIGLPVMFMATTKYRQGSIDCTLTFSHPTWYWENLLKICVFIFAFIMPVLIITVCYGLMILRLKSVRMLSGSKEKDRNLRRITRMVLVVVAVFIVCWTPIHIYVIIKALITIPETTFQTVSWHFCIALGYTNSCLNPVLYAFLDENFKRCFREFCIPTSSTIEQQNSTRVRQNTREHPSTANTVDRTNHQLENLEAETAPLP
The experiment is described as follows: competition vs [3H]DAMGO, COS-7 membranes.

Experiment [3] has the same target. Nature of the experiment: saturation binding, COS-7 membranes.
Experiment [4] has as its target T2, H278N mutant mouse delta opioid receptor (mouse), P32300.
T2 chain: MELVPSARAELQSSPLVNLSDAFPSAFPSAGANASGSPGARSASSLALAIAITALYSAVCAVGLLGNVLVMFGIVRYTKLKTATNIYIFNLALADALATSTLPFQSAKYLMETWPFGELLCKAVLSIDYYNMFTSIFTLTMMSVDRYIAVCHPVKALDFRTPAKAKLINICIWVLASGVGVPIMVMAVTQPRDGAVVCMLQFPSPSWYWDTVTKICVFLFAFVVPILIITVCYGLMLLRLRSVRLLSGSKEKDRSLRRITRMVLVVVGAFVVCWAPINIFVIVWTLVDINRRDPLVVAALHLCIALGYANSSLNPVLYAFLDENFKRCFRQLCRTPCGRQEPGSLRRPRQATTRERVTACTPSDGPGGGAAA
The experiment is described as follows: competition vs 3H-naltrindole, COS-7 membranes.

Experiment [5] concerns the target T3, κ1-78/δ70-372 chimeric opioid receptor (mouse).
T3 chain: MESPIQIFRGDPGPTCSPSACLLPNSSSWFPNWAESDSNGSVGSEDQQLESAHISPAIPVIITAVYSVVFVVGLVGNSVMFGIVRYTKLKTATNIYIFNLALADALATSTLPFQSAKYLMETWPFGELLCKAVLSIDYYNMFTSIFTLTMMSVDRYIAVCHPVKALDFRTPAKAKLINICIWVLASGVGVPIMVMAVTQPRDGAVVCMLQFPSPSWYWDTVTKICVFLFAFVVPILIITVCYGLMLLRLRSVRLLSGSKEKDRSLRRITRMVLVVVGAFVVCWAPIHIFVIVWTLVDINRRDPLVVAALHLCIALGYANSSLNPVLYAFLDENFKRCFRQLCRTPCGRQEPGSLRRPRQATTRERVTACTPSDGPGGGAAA
The experiment is described as follows: competition vs [3H]DPDPE, COS-7 membranes.

Experiment [6] deals with T4, mouse delta opioid receptor (mORD1) (mouse), P32300.
T4 chain: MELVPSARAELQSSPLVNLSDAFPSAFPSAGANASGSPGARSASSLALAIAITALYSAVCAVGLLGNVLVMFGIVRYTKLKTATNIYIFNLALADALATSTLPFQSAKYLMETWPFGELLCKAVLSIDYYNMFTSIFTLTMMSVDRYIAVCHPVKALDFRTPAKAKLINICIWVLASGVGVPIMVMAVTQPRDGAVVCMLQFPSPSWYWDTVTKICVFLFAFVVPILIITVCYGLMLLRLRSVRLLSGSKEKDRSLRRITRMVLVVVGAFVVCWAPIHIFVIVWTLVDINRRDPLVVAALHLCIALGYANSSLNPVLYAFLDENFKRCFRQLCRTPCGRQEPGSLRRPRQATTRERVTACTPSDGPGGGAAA
The experiment is described as follows: cell-based or functional assay.

Experiment [7] has as its target T5, D128N mutant mouse delta opioid receptor (mouse), P32300.
T5 chain: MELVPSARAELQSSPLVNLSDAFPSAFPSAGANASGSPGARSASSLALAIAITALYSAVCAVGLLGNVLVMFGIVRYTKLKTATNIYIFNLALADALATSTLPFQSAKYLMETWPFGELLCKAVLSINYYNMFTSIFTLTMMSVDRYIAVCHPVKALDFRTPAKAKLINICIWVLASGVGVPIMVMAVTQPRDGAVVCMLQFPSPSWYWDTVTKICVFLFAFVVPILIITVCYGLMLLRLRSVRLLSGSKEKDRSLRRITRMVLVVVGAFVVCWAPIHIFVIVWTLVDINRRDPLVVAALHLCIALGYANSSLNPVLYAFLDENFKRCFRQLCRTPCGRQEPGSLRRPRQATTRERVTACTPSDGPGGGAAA
Nature of the experiment: cell-based or functional assay.

The target in experiment [8] is T4, mouse delta opioid receptor (mORD1) …. Nature of the experiment: radioligand binding, COS-7 membranes.
For experiment [9] the target is unchanged. Nature of the experiment: competition vs [3H]naltrindole, COS-1 membranes.
Experiment [10] has the same target. The experiment is described as follows: competition vs [3H]naltrindole, CHO-DG44 membranes.

The values below come from patent US20030211537A1.

Non-standard residues stand in square brackets, D forms with d. No end group written: not given here.

Chain of cloned human µ opioid receptor (human), P35372 (P35372 whole entry): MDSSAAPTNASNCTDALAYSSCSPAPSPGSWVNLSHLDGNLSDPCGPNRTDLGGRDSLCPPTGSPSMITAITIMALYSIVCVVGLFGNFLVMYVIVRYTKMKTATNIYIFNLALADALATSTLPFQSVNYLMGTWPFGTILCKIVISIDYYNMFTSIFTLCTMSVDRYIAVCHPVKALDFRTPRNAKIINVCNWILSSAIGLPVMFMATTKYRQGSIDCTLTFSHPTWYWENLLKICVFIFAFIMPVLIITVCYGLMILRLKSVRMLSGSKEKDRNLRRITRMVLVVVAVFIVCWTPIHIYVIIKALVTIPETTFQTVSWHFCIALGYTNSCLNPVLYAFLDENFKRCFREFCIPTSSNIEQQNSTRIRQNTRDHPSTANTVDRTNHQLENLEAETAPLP

What is called Kd is a measure of binding affinity in units of concentration. Low readings indicate a tighter complex, high ones a looser complex. As usually defined, the Ki is a measure of affinity in units of concentration, obtained from inhibition or displacement. A low value points to higher affinity. Take YAGFG (modifications not checked) [[D-Ala2,MePhe4,Gly-ol5]enkephalin (DAMGO)]: the results for the Kd in experiment [1] and in experiment [3] were 1 nM and 0.57 nM, respectively. In experiment [2], the Ki is 2 nM.

For orientation: IC50 means the concentration that inhibits the measured activity by half. Lower therefore signals greater potency. In turn, Y[dS]GFLT [[D-Ser2, Leu5] enkephalin-Thr6 (DSLET)] gave a Ki in [4] of 0.5 nM. The molecule also returned an IC50 in experiment [5] of 2 nM. Moreover, the inhibition of forskolin-stimulated cAMP formation in experiment [6] is 70%. In [7], the EC50 to inhibit forskolin-stimulated cAMP accumulation was determined as 30 nM.

As to YCGFC (modifications not checked) [[D-Pen2, D-Pen5]enkephalin (DPDPE)], the average binding (fmol/mg protein) in [8] was 1990.

On to YAGFL (modifications not checked) [DADL], for which, in experiment [9], the IC50 is 20 nM. Further, the Ki in experiment [10] stood at 0.74 nM; in [2] it was 16 nM.
